Experimental data from US20070196354A1, “Method of treating diabetes by inhibiting degradation of at least one of crebl1, atf6, and hnf-4 alpha by htra” (priority 2003, published 2007).

Target: T1, biotinylated CREBL1 (Homo sapiens, UniProt Q99941)
T1 construct: made in house; host or cells: cell-free: rabbit reticulocyte lysate (TNT Transcription/Translation System, Promega); the unpurified reaction solution was used
T1 sequence (Q99941 1-703): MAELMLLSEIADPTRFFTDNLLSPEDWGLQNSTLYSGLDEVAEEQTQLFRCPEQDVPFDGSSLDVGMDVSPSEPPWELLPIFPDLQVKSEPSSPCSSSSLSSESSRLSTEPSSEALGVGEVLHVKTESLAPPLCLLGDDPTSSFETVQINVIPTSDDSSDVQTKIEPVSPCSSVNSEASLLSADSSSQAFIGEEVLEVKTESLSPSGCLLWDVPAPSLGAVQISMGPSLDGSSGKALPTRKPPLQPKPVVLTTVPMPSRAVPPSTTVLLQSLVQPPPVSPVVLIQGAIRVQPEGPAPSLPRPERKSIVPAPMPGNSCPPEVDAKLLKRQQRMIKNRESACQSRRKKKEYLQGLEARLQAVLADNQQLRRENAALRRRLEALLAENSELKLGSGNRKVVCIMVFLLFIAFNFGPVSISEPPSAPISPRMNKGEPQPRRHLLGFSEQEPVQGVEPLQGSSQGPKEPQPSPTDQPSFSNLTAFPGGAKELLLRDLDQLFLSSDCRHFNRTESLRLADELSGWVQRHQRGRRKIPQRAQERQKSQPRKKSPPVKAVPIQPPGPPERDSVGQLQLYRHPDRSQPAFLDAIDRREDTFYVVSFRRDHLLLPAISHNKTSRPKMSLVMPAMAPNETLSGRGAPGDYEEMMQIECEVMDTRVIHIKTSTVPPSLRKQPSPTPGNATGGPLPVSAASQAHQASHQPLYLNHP
Assay: In vitro protease assay using biotinylated CREBL1 (degradation pattern)
Assay type: biochemical
Conditions: 37° C., 4 hours or overnight
Description: More concretely, first, 1.5 μl of the animal cell expression plasmid for CREBL1 (1 μg/μl), 1 μl of 1 mM methionine, 1 μl of biotinylated lysine tRNA (Promega), and 6.5 μl of nuclease free water were added to 40 μl of in vitro translation reaction solution (TNT® Quick Master Mix) to obtain total volume of 50 μl, and reacted for at 30° C. for 1.5 hours. Following this, 12.5 μl of 50 μl reaction solution was sampled, followed by adding with 2×SDS sample buffer and boiling, to detect the expression of biotinylated CREBL1 by western blotting. The detection was carried out using streptavidin HRP (Promega) and Transcend™ Chemiluminescent substrate (Transcend™ Non-Radioactive Translation detection system; Promega). As a result, biotinylation of CREBL1 was confirmed in sample.
The reaction solution was used as the sample for protease assay. 12.5 μl each of the reaction solution was dispensed to three tubes (Nos. 2 to 4). 25 μl of 50 mM Tris-HCl (pH 7.5), 150 mM NaCl, 0.01% Triton X-100 was added as the control to tube No. 2, 25 μl of 200 μg/m mature HtrA2 solution was added to tube No. 3, and 25 μl of 200 μg/ml mature HtrA2 (S306A) solution was added to tube No. 4, respectively, and mixed. […]

B1: mature HtrA2: SEQ ID NO: 4; mature protein generated from HtrA2 precursor by cleavage of N-terminal 133 residues, has protease activity (protein, listed as Homo sapiens)
chain: MAVPSPPPASPRSQYNFIADVVEKTAPAVVYIEILDRHPFLGREVPISNGSGFVVAADGLIVTNAHVVADRRRVRVRLLSGDTYEAVVTAVDPVADIATLRIQTKEPLPTLPLGRSADVRQGEFVVAMGSPFALQNTITSGIVSSAQRPARDLGLPQTNVEYIQTDAAIDFGNSGGPLVNLDGEVIGVNTMKVTAGISFAIPSDRLREFLHRGEKKNSSSGISGSQRRYIGVMMLTLSPSILAELQLREPSFPDVQHGVLIHKVILGSPAHRAGLRPGDVILAIGEQMVQNAEDVYEAVRTQSQLAVQIRRGRETLTLYVTPEVTE
modifications: mature HtrA2
anti-Tag antibody
  degradation of N-terminal tagged-CREBL1, detecting the Tag: The band of N-terminal tagged-CREBL1 was reduced significantly
Streptavidin HRP
  degradation of biotinylated CREBL1, detecting the biotin: The band of biotinylated CREBL1 was reduced significantly
